Experimental data reported in US20240018502A1.
Substitutions are numbered along the chain they refer to. In names and notes the source's numbering stands.

B1: MTSP-1 Q38H/I41S/D60bT/F60eS/Y60gW/D96K/F97G/T98P/F99L/C122S/G151H/Q175L/Q192D (enzyme)
chain: VVGGTDADEGEWPWQVSLHALGHGHSCGASLISPNWLVSAAHCYIDTRGSRWSDPTQWTAFLGLHDQSQRSAPGVQERRLKRIISHPFFNKGPLDYDIALLELEKPAEYSSMVRPISLPDASHVFPAGKAIWVTGWGHTQYGGTHALILQKGEIRVINQTTCENLLPQLITPRMMCVGFLSGGVDSCDGDSGGPLSSVEADGRIFQAGVVSWGDGCAQRNKPGVYTRLPLFRDWIKENTGV
B2: MTSP-1 protease domain Q38H/I41S/D96G/ins97aG/C122S/G151N/Q192A (enzyme)
chain: VVGGTDADEGEWPWQVSLHALGHGHSCGASLISPNWLVSAAHCYIDDRGFRYSDPTQWTAFLGLHDQSQRSAPGVQERRLKRIISHPFFNGFGTFDYDIALLELEKPAEYSSMVRPISLPDASHVFPAGKAIWVTGWGHTQYGGTNALILQKGEIRVINQTTCENLLPQQITPRMMCVGFLSGGVDSCAGDSGGPLSSVEADGRIFQAGVVSWGDGCAQRNKPGVYTRLPLFRDWIKENTGV
B3: MTSP-1 protease domain Q38H/I41S/D96K/ins97aD/C122S/G151N/Q192S (enzyme)
chain: B2 chain with G91K, G93D, A189S
B4: MTSP-1 protease domain I41S/D96E/ins97aG/C122S/G151Q/Q192A (enzyme)
chain: B2 chain with H23Q, G91E, N146Q
B5: MTSP-1 protease domain I41S/Y59F/ins97aV/C122S/G187D/Q192V/D217V (enzyme)
chain: B2 chain with H23Q, Y44F, G91D, G93V, N146G, G184D, A189V, D215V
B6: MTSP-1 protease domain A35V/I41S/Y59F/C122S/Q192D/D217V (enzyme)
chain: VVGGTDADEGEWPWQVSLHVLGQGHSCGASLISPNWLVSAAHCFIDDRGFRYSDPTQWTAFLGLHDQSQRSAPGVQERRLKRIISHPFFNDFTFDYDIALLELEKPAEYSSMVRPISLPDASHVFPAGKAIWVTGWGHTQYGGTGALILQKGEIRVINQTTCENLLPQQITPRMMCVGFLSGGVDSCDGDSGGPLSSVEADGRIFQAGVVSWGVGCAQRNKPGVYTRLPLFRDWIKENTGV
B7: MTSP-1 protease domain I41S/F93L/ins97aV/C122S/Q192V/D217V (enzyme)
chain: B2 chain with H23Q, F88L, G91D, G93V, N146G, A189V, D215V
B8: MTSP-1 protease domain I41S/S90P/ins97aV/C122S/Y146E/Q192N/D217V (enzyme)
chain: B2 chain with H23Q, S85P, G91D, G93V, Y142E, N146G, A189N, D215V
B9: MTSP-1 protease domain I41S/S90T/ins97aV/C122S/Q192N/D217V (enzyme)
chain: B2 chain with H23Q, S85T, G91D, G93V, N146G, A189N, D215V
B10: MTSP-1 protease domain I41S/S90T/ins97aV/C122S/Q192V/D217V (enzyme)
chain: B2 chain with H23Q, S85T, G91D, G93V, N146G, A189V, D215V
B11: MTSP-1 protease domain I41S/Y59F/ins97aV/C122S/Q192G (enzyme)
chain: B2 chain with H23Q, Y44F, G91D, G93V, N146G, A189G
B12: MTSP-1 Q38H/I41S/D60bT/F60eS/Y60gW/D96K/F97G/ins97aV/F99L/C122S/G151H/Q175L/Q192D (enzyme)
chain: B2 chain with D47T, F50S, Y52W, G91K, F92G, G93V, F95L, N146H, Q170L, A189D
B13: MTSP-1 protease domain I41S/Y59F/F97S/ins97aV/S116Y/C122S/Q192G/D217V (enzyme)
chain: B2 chain with H23Q, Y44F, G91D, F92S, G93V, S112Y, N146G, A189G, D215V
B14: MTSP-1 protease domain I41S/ins97aV/C122S/Q192G/Q209L (enzyme)
chain: B2 chain with H23Q, G91D, G93V, N146G, A189G, Q207L
B15: MTSP-1 protease domain Q38H/I41S/ins97aV/A112V/C122S/Q192A/Q209L (enzyme)
chain: B2 chain with G91D, G93V, A108V, N146G, Q207L
B16: MTSP-1 protease domain I41S/ins97aV/C122S/Q192V/D217V (enzyme)
chain: B2 chain with H23Q, G91D, G93V, N146G, A189V, D215V
B17: MTSP-1 protease domain I41S/Y59F/ins97aV/C122S/Q192A (enzyme)
chain: B2 chain with H23Q, Y44F, G91D, G93V, N146G
B18: MTSP-1 protease domain I41A/F97G/ins97aM/T98L/C122S (enzyme)
chain: B2 chain with H23Q, S26A, G91D, F92G, G93M, T94L, N146G, A189Q
B19: MTSP-1 protease domain I41G/F97E/F99L/C122S/Q192A (enzyme)
chain: B6 chain with V20A, S26G, F44Y, F92E, F94L, D188A, V214D
B20: MTSP-1 protease domain I41S/F97V/ins97aV/T98P/C122S (enzyme)
chain: B2 chain with H23Q, G91D, F92V, G93V, T94P, N146G, A189Q
B21: MTSP-1 protease domain I41S/T98S/F99L/C122S/Q192A (enzyme)
chain: B6 chain with V20A, F44Y, T93S, F94L, D188A, V214D
B22: MTSP-1 protease domain I41S/F97Q/F99L/C122S/Q192S (enzyme)
chain: B6 chain with V20A, F44Y, F92Q, F94L, D188S, V214D
B23: MTSP-1 Q38H/I41S/D60bT/F60eS/Y60gW/D96K/F97G/ins97aV/T98P/C122S/G151H/Q175L/Q192D (enzyme)
chain: B2 chain with D47T, F50S, Y52W, G91K, F92G, G93V, T94P, N146H, Q170L, A189D

Molecular target: plasma purified human complement protein C3 (human) (UniProt P01024)
Test: cell-based or functional assay

Chain of plasma purified human complement protein C3 (human) (P01024 23-667, chain 1 of 2): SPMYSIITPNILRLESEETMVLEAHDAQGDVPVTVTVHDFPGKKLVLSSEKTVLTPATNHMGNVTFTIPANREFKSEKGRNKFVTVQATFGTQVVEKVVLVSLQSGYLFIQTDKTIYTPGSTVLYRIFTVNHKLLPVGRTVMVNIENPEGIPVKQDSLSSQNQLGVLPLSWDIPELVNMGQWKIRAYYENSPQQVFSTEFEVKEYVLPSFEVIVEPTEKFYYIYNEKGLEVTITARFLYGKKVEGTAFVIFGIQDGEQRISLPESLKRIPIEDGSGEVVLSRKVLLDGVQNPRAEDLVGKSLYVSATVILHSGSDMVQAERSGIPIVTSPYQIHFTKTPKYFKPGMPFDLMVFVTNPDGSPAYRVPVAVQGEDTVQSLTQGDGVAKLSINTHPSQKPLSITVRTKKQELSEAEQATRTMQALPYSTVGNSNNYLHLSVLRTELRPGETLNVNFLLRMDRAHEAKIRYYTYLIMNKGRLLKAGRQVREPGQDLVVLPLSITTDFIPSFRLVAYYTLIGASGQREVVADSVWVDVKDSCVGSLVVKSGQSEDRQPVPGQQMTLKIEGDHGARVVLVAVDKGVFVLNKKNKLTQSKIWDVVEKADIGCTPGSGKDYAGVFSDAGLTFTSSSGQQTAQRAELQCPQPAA
Chain of plasma purified human complement protein C3 (human) (P01024 672-1663, chain 2 of 2): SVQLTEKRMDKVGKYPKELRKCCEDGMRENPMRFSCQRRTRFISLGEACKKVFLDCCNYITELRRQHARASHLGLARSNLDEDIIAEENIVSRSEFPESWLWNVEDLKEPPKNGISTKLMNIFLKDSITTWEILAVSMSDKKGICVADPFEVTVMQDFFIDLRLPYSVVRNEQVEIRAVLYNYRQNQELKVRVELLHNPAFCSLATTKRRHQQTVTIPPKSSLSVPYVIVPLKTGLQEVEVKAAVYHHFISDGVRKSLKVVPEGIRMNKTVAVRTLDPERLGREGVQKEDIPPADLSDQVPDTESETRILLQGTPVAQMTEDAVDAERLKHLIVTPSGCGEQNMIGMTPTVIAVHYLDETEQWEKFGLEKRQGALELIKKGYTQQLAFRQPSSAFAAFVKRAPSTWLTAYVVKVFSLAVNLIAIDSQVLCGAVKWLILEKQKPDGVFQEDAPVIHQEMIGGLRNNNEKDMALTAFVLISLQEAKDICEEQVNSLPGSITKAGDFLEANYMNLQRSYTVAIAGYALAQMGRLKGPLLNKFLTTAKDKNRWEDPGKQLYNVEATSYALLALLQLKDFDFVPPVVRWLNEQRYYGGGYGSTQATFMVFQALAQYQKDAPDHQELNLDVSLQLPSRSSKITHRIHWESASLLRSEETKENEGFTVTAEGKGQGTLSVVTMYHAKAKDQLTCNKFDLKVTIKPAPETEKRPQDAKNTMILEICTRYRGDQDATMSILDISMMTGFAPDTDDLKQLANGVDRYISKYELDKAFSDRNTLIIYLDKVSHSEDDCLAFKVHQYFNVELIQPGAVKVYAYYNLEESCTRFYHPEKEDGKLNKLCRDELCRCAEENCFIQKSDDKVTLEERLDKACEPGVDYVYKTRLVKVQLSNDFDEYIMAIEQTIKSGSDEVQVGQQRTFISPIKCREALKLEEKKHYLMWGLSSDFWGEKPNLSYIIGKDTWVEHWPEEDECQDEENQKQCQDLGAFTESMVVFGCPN

| Binder | EC50 of hC3 cleavage [nM] | EC50 hC3 cleavage [nM] |
| --- | --- | --- |
| B1 | 7.88 | – |
| B2 | – | 34.6 |
| B3 | – | 26.8 |
| B4 | – | 44.4 |
| B5 | – | 8.35 |
| B6 | – | 39.8 |
| B7 | – | 9.82 |
| B8 | – | 6.47 |
| B9 | – | 13.4 |
| B10 | – | 10.5 |
| B11 | – | 25.6 |
| B12 | 9.83 | – |
| B13 | – | 8.22 |
| B14 | – | 33.4 |
| B15 | – | 10.9 |
| B16 | – | 11 |
| B17 | – | 16.6 |
| B18 | – | 40.1 |
| B19 | – | 30.1 |
| B20 | – | 30.9 |
| B21 | – | 17.4 |
| B22 | – | 53.5 |
| B23 | 18.3 | – |
